# Target: EPHB2 (UniProt P29323)
# Experiment: phosphorylation enrichment, bacterial display (enrichment ratio); higher = better substrate or ligand; peptides without Tyr show the background
# 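Also: 11-residue human phosphosite peptides and single-mutation variants displayed on the E. coli surface, counted by deep sequencing, each peptide's frequency after selection divided by its frequency in the unselected input library; frequency after pTyr selection over input frequency; kinase dosed for 20-30% of maximal phosphorylation in three min.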
# Chain of EPHB2 (P29323 whole entry, looked up): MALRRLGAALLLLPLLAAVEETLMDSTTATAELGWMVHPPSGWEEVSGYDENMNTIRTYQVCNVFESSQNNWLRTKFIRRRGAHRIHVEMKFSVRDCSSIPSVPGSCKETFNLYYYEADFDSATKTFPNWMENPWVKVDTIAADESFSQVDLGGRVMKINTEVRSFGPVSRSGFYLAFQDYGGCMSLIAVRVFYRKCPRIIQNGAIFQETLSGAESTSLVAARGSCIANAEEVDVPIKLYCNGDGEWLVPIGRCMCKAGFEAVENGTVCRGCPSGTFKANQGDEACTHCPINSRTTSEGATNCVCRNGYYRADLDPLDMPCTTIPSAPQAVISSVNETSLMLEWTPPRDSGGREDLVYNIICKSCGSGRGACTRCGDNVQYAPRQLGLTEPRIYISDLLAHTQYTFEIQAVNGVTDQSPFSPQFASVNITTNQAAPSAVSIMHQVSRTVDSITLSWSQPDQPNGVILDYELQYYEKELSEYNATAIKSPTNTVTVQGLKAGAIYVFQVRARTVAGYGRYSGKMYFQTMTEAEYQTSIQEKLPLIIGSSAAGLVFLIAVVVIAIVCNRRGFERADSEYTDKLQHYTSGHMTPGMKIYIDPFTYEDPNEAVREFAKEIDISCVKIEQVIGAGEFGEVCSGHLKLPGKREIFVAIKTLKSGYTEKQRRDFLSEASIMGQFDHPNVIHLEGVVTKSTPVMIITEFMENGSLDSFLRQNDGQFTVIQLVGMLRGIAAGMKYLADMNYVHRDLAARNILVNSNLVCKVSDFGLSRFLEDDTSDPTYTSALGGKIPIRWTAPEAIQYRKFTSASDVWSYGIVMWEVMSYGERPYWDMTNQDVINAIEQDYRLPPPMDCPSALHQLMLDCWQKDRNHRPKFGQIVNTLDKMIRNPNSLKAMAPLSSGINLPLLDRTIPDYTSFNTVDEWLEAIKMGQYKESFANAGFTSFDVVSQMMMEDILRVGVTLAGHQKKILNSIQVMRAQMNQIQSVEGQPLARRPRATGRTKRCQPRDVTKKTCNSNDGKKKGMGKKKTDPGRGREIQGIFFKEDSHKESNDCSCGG
row,Sequence,phosphorylation enrichment
1,KYWREYILSLE [GPC3_Y299],0.569
2,VAMELYVFGGV [GAN_Y471],0.681
3,TKGNEYVFRVA,0.565
4,DENWFYTQAAS [RPS19_Y54_R56Q],0.877
5,PTEAQYRFIYM [PTPN11_Y511_Q506P],0.777
6,FAKTQYPDVFA [CRX_Y63_YF],0.45
7,FLKDVYVDSKD [NDUFAF4_Y69],0.512
8,QFQLKYSETPF [SIX6OS1_Y129_YF],1.12
9,AQINLYQDVML [ZNF806_Y33],8.39
10,YTFTSYYMHWV [IGHV1-46_Y51],1.27
11,HHIDYYKKTTN [FGFR1_Y654],0.721
12,TKFRNYLIPKG [CYP2C8_Y379],0.421
13,KPNMNYDKLSQ [FLI1_Y332_R337Q],0.446
14,TDKLFYIYTPG [SLC27A4_Y243_S247P],0.502
15,LVPPRYVRSEI [PKP2_Y194_A195V],0.645
16,DLVSEYQQYQD [TUBB3_Y422],0.704
17,LRNIDYFRLDG [ATRX_Y2083_YF],3.05
18,PDSVDYPKKGF [CTSK_Y121_R122P_YF],1.13
19,NLSVPYDSSLK [ABCC8_Y1353_R1352P],0.509
20,GPIFRYDSGGA [CYP11B1_Y81_L83S],0.418
21,ISDNAYQYMLT [MYH7_Y162],0.496
22,NLTLKYPIEHG [ACTA1_Y71_I66N],0.541
23,GGGGSYNVFGN [HNRNPA1_Y312_D314V],0.523
24,PTTKTYFPHFH [HBA1_Y43_D48H],0.399
25,DSGKLYALDGL [INO80_Y1104_V1108G],0.833
26,DYLEKYYKFGC [NNMT_Y24_S29C],0.802
27,LEIETYRRLLD [KRT12_Y429],0.549
28,SHMVNYQPFRK [TEX37_Y25_D24N_YF],0.371

# Target: FGFR1 (UniProt P11362)
# Sequence (P11362 whole entry, looked up): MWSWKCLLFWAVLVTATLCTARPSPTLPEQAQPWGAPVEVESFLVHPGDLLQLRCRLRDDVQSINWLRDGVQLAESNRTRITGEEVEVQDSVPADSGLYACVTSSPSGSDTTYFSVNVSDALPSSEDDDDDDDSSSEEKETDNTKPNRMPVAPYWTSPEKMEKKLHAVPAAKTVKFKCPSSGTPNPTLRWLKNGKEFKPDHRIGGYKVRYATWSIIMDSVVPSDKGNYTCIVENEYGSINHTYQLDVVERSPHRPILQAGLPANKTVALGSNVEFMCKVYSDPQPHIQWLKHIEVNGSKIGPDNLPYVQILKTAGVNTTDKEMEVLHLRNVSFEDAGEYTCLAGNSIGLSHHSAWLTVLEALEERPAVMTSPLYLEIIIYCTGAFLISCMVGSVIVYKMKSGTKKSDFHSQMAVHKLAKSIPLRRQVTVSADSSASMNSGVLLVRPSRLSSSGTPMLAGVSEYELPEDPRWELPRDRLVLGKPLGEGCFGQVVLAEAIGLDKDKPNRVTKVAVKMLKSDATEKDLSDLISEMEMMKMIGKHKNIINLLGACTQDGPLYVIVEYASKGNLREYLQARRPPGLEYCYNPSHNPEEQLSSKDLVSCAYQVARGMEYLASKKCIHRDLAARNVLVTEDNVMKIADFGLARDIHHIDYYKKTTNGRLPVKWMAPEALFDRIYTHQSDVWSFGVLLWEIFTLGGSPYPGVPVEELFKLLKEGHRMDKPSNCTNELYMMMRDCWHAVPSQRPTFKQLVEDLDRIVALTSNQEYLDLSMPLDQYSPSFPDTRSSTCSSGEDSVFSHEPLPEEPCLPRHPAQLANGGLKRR
# Experiment: as above
row,Sequence,phosphorylation enrichment
1,KYWREYILSLE [GPC3_Y299],0.499
2,VAMELYVFGGV [GAN_Y471],0.513
3,TKGNEYVFRVA,0.519
4,DENWFYTQAAS [RPS19_Y54_R56Q],0.455
5,PTEAQYRFIYM [PTPN11_Y511_Q506P],3.16
6,FAKTQYPDVFA [CRX_Y63_YF],0.454
7,FLKDVYVDSKD [NDUFAF4_Y69],0.488
8,QFQLKYSETPF [SIX6OS1_Y129_YF],0.982
9,AQINLYQDVML [ZNF806_Y33],1.14
10,YTFTSYYMHWV [IGHV1-46_Y51],3.64
11,HHIDYYKKTTN [FGFR1_Y654],0.568
12,TKFRNYLIPKG [CYP2C8_Y379],0.381
13,KPNMNYDKLSQ [FLI1_Y332_R337Q],0.468
14,TDKLFYIYTPG [SLC27A4_Y243_S247P],0.728
15,LVPPRYVRSEI [PKP2_Y194_A195V],0.469
16,DLVSEYQQYQD [TUBB3_Y422],0.523
17,LRNIDYFRLDG [ATRX_Y2083_YF],21.5
18,PDSVDYPKKGF [CTSK_Y121_R122P_YF],1.12
19,NLSVPYDSSLK [ABCC8_Y1353_R1352P],0.445
20,GPIFRYDSGGA [CYP11B1_Y81_L83S],0.505
21,ISDNAYQYMLT [MYH7_Y162],3.44
22,NLTLKYPIEHG [ACTA1_Y71_I66N],0.598
23,GGGGSYNVFGN [HNRNPA1_Y312_D314V],0.467
24,PTTKTYFPHFH [HBA1_Y43_D48H],0.602
25,DSGKLYALDGL [INO80_Y1104_V1108G],0.581
26,DYLEKYYKFGC [NNMT_Y24_S29C],0.855
27,LEIETYRRLLD [KRT12_Y429],0.45
28,SHMVNYQPFRK [TEX37_Y25_D24N_YF],0.347
